# US20050064507A1, “Determining kinase specificity” (priority 2003, published 2005)
# Columns and labels:
# Format in all cases: biochemical
# PKC-alpha = target: T1, PKC-alpha (Homo sapiens, UniProt P17252); assay: In vitro kinase assay: peptide phosphorylation by PKC-alpha; details: for PKC alpha phosphorylation: normalized to best substrate
# T1 construct: purchased Calbiochem
# Procedure: (§1) Catalytically active preparations of the kinases of interest were either purchased or prepared. Purchased and tested active kinase preparations including the following: PKC-alpha, PKC-delta, PKC-epsilon, PKC-zeta, PKC-mu, PKA, PKG from Calbiochem, ROK alpha/ROCK-II, active from Upstate Biotechnology, and AKT1 from Panvera.
# (§2) The conditions of the kinase assay and the amount of active kinase used varied with the kinase and with the accuracy needed. For a typical experiment, 5-20 ng of kinase was used per well and each peptide pool was assayed in duplicate wells. Note that the absolute amount of kinase used was not usually a critical parameter, because the desired information related to specificity of the kinase not its absolute activity, and robustness of the assay depends on comparisons of the same amount of kinase on different peptides. The combination of kinase concentration and assay duration was modified to assure that the stoichiometry of peptide phosphorylation never exceeded 5%. The choice of kinase buffer depended on the kinase being analyzed. For studies of PKC, 100 mM HEPES, 0.05% Triton-X100, 1 mM CaCl2, 20 mM MgCl2, 0.2 mg/ml phosphatidyl serine (Avanti Polar Lipids), PMA 100 ng/ml was typically used. The lipid stock was prepared by transferring 3 mg phosphatidyl serine into iced mixture of 450 μl water plus 50 μl of 10% Triton-X100, sonicating 10 times on ice for 1 sec each.
# (§3) The kinase reaction mixture was assembled by sequential addition to a tube held on ice of: 5 μl peptide (100 μM for final concentration of 10 μM), 15 μl of kinase (typically 5 ng/well, in appropriate kinase buffer), 30 μl of ATP (1 uCi/well of ^32P-gamma ATP in a stock of 167 μM cold ATP in the kinase buffer; for final concentration for 100 μM ATP). The mixture was rapidly warmed to desired reaction temperature (30° C. for PKC) and incubated for the desired duration (usually 10 minutes). The kinase assay was terminated by transfer to 4° C. water batch, and rapid addition of an equal volume (50 μl) of stop solution [0.1M ATP+0.1M EDTA in water, pH 8].
# (§4) The peptides were then captured from the reaction mixture by transfer to a Reacti-Bind Streptavidin High Binding Capacity Coated Plates (HBC) (Pierce Biotechnology) as follows. The HBC plates were pre-rinsed three times with PBS/Tween PBS/Tween20 0.05% (PBS/Tween). Part of all of the reaction mixture was then transferred wells of a HBC plate pre-filled with 90 μl of phosphate-buffered saline (PBS); typically each aliquots of each phosphorylation reaction were transferred to duplicate HBC plates to assure accuracy by additional replication
# (§5) For kinase assays done at the standard peptide concentration of 10 μM, the peptide concentration in the reaction mixture becomes 5 μM after addition of the stop solution; consequently 10 μl of the reaction (50 pMoles of peptide) was transferred to the HBC plate. More generally, the amount of reaction mixture transferred was estimated to be about 50 pMoles of peptide. […] The HBC plates were incubated for 0.5 to 1.5 hr at room temperature for complete binding of biotinylated peptides to plate-bound streptavidin. The HBC plates were then washed extensively with PBS/Tween. Five washes were done routinely and additional wash steps were added if the wash solution removed from the plate had measurable radioactivity as detected using a Geiger counter. This step is essential to obtaining a good the signal to noise ratio because the fraction of radioactivity incorporated in the peptides was a tiny fraction of the total in the reaction mixture. The wells were air-dried. A volume of 40-50 μl of microScint-20 (Packard Instruments) was added to each well. The plates were covered with stick-on film sheet. Radioactive emissions were measured in a TopCount NXT Microplate Scintillation and Luminescence Counter (Packard Instruments). Typically samples were counted for 5 minutes (or more) to improve the signal to noise ratio when counts were low. […]
# PKC = assay: In vitro phosphorylation by PKC (average of isoforms alpha, epsilon, delta, theta); details: for PKC average: average of PKC-alpha, -epsilon, -theta, normalized to best substrate; for average (phosphorylation by PKC-theta, -delta, -epsilon, -alpha): average over PKC-theta, -epsilon and -alpha at 10 and 1 uM peptide, relative to best substrate
# Procedure: as §2, §3, §4
# For kinase assays done at the standard peptide concentration of 10 μM, the peptide concentration in the reaction mixture becomes 5 μM after addition of the stop solution; consequently 10 μl of the reaction (50 pMoles of peptide) was transferred to the HBC plate. More generally, the amount of reaction mixture transferred was estimated to be about 50 pMoles of peptide. […] The HBC plates were incubated for 0.5 to 1.5 hr at room temperature for complete binding of biotinylated peptides to plate-bound streptavidin. The HBC plates were then washed extensively with PBS/Tween. Five washes were done routinely and additional wash steps were added if the wash solution removed from the plate had measurable radioactivity as detected using a Geiger counter. This step is essential to obtaining a good the signal to noise ratio because the fraction of radioactivity incorporated in the peptides was a tiny fraction of the total in the reaction mixture. The wells were air-dried. A volume of 40-50 μl of microScint-20 (Packard Instruments) was added to each well. The plates were covered with stick-on film sheet. Radioactive emissions were measured in a TopCount NXT Microplate Scintillation and Luminescence Counter (Packard Instruments). Typically samples were counted for 5 minutes (or more) to improve the signal to noise ratio when counts were low.
# Many peptides that are good substrates for PKC enzymes were identified using the methods of the invention. For example, Tables 4 and 5 provide a listing of peptides identified as potentially useful kinase substrates. […]
# PKC-epsilon = target: T2, PKC-epsilon (Homo sapiens, UniProt Q02156); assay: In vitro kinase assay: peptide phosphorylation by PKC-epsilon; details: for PKC-epsilon phosphorylation: normalized to best substrate; for phosphorylation by PKC epsilon: peptide concentration 1 uM
# T2 construct: purchased Calbiochem
# T2 sequence (Q02156 1-737): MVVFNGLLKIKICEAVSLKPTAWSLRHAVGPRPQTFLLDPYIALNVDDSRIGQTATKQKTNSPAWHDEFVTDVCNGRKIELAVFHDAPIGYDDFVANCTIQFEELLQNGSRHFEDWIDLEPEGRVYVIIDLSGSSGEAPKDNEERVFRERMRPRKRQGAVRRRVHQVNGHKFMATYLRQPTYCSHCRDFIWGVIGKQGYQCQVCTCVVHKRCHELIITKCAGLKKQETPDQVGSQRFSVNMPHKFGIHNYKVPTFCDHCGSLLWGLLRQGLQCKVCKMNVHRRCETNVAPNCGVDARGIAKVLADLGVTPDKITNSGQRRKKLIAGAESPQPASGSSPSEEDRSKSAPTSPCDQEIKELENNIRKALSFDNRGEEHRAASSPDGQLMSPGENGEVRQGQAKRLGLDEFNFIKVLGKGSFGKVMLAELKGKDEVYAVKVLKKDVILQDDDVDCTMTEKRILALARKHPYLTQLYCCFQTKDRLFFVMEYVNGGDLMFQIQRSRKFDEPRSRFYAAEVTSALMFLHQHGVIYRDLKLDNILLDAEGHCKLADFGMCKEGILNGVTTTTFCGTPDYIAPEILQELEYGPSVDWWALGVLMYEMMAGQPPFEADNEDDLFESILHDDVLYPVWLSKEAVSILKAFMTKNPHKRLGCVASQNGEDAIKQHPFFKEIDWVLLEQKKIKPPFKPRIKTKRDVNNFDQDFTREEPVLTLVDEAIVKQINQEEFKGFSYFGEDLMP
# Procedure: as §1, §2, §3, §4, §5
Substance,PKC alpha phosphorylation (PKC-alpha),PKC average (PKC),PKC-epsilon phosphorylation (PKC-epsilon),phosphorylation by PKC alpha (PKC-alpha; peptide concentration 1 uM),phosphorylation by PKC alpha (PKC-alpha; peptide concentration 10 uM),"average (phosphorylation by PKC-theta, -delta, -epsilon, -alpha) (PKC)",phosphorylation by PKC epsilon (PKC-epsilon)
89 (EYLERRASRRRAV) [compound 89],37%,41%,45%,,,,
112 (KRPGKKGSNKRPGKR) [compound 112],10%,12%,11%,,,,
135 (KKKFRTPSFLKKSKK) [compound 135],,,,56,19,33,27
105 (ALRRPSLRREADD) [compound 105],26%,21%,29%,,,,
141 (VTDSQKRREILSRRPSYRKI) [compound 141],,,,24,25,29,31
106 (EILSRRPSYRKILND) [compound 106],23%,21%,31%,,,,
124 (PRLIRRGSKKRPAR) [compound 124],,,,48,24,49,49
137 (PSKSPSKKKKKFRTPSFLKK) [compound 137],,,,34,38,31,32
167 (GLPAPGEDKSIYRRGSRRWR) [compound 167],,,,27,7,15,6
101 (GAPPRRSSIRNAH) [compound 101],32%,23%,19%,,,,
130 (EYLERRASRRRAV) [compound 130],,,,38,38,39,46
121 (LRRRSLRRSNSISKSPGP) [compound 121],,,,33,29,50,49
118 (RPQNTLKASKKKKRASFKRK) [compound 118],,,,46,60,64,89
77 (KKKKRASFKRKSSKKG) [compound 77],100%,80%,71%,,,,
128 (QQVDRERPHVRRRRGTFKRS) [compound 128],,,,25,33,42,32
117 (NRKKKRTSFKRKA) [compound 117],,,,40,39,70,67
107 (QKRHARVTVKYDRRE) [compound 107],18%,19%,7%,,,,
82 (PRLIRRGSKKRPAR) [compound 82],61%,56%,72%,,,,
126 (KAIKAIEGGQKFARKSTRRS) [compound 126],,,,36,34,46,69
94 (KLAVGRHSFSRRSGV) [compound 94],34%,36%,13%,,,,
144 (LSSMFGTLPRKSRKGSVRKQ) [compound 144],,,,31,20,28,24
154 (KKFFTQGWAGWRKKTSFRKP) [compound 154],,,,16,12,22,29
166 (MAQIERGEARIQRRISIKKA) [compound 166],,,,22,7,15,10
111 (KKKRFSFKKSFKLSGFSFKK) [compound 111],11%,14%,12%,,,,
90 (AQIVKRASLKRGKQ) [compound 90],40%,40%,49%,,,,
